Measurements as given in patent US20110136145A1, “METHODS FOR PROMOTING FUSION AND REPROGRAMMING OF SOMATIC CELLS” (THE JOHNS HOPKINS UNIVERSITY, priority 2008, published 2011).

What was measured:
[1] = test system: ESC-induced Oct4-GFP re-activation in NSCs; test: CLEAR analysis of ESC fusion-induced reprogramming (PEG-induced fusion of Z-Red ESCs and CIPOE NSCs, flow cytometry)
Text: CLEAR strategy uses engineered ESCs and NSCs for monitoring fusion-induced DsRed expression and reprogramming-induced GFP expression (FIG. 1A). Z-Red ESCs were derived from a clonal ESC line containing one copy of a transgene (CAG-loxP-LacZ::neomycin-polyA-loxP-DsRed.T3) as a Cre recombination excision reporter.
Adult NSCs were isolated from Oct4-GFP (GOF 18-A PE-EGFP) transgenic mice and transduced by retroviruses to stably co-express Cre and the puromycin resistance gene through a bicistronic cassette (termed CIPOE NSCs hereafter). Somatic cells with Oct4-GFP transgene integration have been used previously to investigate reprogramming, in which the regulatory elements of Oct4 direct reliable GFP reactivation from somatic genomes in reprogrammed ESC-like hybrid cells (also see FIG. 3). Multiple CIPOE NSC lines from Oct4-GFP transgenic mice were established, characterized and used for subsequent cell fusion experiments.
To quantitatively analyze the reprogramming-induced Oct4-GFP re-activation, dual-color flow cytometry was used to display and measure the cell population that underwent PEG-induced cell fusion. Viable cells were identified by their typical FSC (Forward Scatter) and SSC (Side Scatter) properties. To ensure appropriate gating for […] and DsRed+ events and to compensate the spectrum crossover of GFP and DsRed signals, the system was first calibrated using multiple control cells, including Z-Red ESCs, CIPOE NSCs, mixed Z-Red ESCs and CIPOE NSCs without PEG. Z-Red ESCs transfected with a constitutive Cre expression plasmid, and CIPOE NSCs transfected with a Cre excision reporter plasmid (FIG. 4A).
ESC fusion-induced Oct4 re-activation from NSCs was quantitatively measured using two different approaches. In the first approach, the reprogramming frequency (Rf) is determined by the ratio of GFP DsRed+ cells to total DsRed+ cells. […] In the second approach, the reprogramming efficacy is determined by the distribution of GFP fluorescence intensities of individual cells from the DsRed+ population (FIG. 4C). This analysis provides a measurement of the efficiency of Oct4-GFP re-activation in NSCs after successful fusion.
The protocol was optimized for PEG-induced cell fusion between ESCs and NSCs to achieve maximum efficiency and minimal toxicity. Equal numbers of ESCs and NSCs were mixed thoroughly and spun down in PBS. The pellet was loosened by gentle tapping and 50% PEG (500 μl for 1×10^7 cells) was added to the cells continuously over one minute while swirling the mixture in 37° C. water bath Next, 2 ml of ESC medium was layered on top of PEG-cell mixture and one-minute incubation in 37° C., followed by low-speed centrifugation at 1,800 rpm for 5 minutes. After removing the supernatant, the pellet was incubated with ESC medium for one minute, washed, resuspended and plated onto gelatin-coated dishes and grown in Dubelcco's Modified Eagle's Medium, 15% fetal bovine serum supplemented with mouse leukemia inhibitory factor (ESGRO), 0.1 mM nonessential amino acids, 0.1 mM β-mercaptoethanol, and 50 U/ml penicillin/50 μg/ml streptomycin (ESC medium). […] The following pharmacological inhibitors were applied in ESC-fusion experiments only during the first 48 hours after fusion. DMOG (5-10 μM; BioMol), Anacardic acid (5-10 μM; Calbiochem), Trichostatin A (TSA, 100 nM-1 μM; Sigma) and azidothymidine (AZT, 1-5 μM; Sigma).

G9a = test: Quantitative real-time PCR of G9a expression in CIPOE NSCs; format: cell-based, mouse; conditions: CIPOE cells
Text: Shown is a summary of quantitative real-time PCR analysis of the expression level of G9a in Z-Red ESCs, CIPOE NSCs, CIPOE NSCs with control shRNA or G9a-targeted shRNA. The mRNA abundance was normalized to the levels in CIPOE cells. Values represent mean+SEM (n=3; * P<0.01, Students t-test). […] Shown are results from cell fusion experiments between Z-Red and CIPOE, CIPOE-shControl, or CIPOE-shG9a cells. Values represent mean+SEM (n=3; *- P<0.01 Students t-test). (C) Summary of reprogramming efficacy. Cumulative distribution plots of DsRed+ population with graded GFP fluorescence intensities are shown for comparison of the reprogramming efficacy of Z-Red ESCs with CIPOE-shControl, or CIPOE-shG9a cells at day 2 and day 4 after cell fusion. Values represent mean±SEM (n=3; *: P<0.01, Kolmogorov-Smirnov test).
Next, the molecular identities of epigenetic factors that play critical roles in reprogramming were examined. […] Using a previously validated small short-hairpin RNA (shRNA) for mouse G9a, the expression of endogenous G9a was knocked down in CIPOE cells, as shown by quantitative real-time PCR (FIG. 7A). […]
(§1) For real-time quantitative PCR, total RNAs were purified using RNAeasy kit (Qiagen) and converted to cDNA by SuperScript III (Invitrogen). Triplicate cDNA samples were added to a SYBR-green based quantitative PCR reaction mix and analyzed using the ddCt methods. […]

Oct4 promoter = test: Bisulfite sequencing of Oct4 promoter in CIPOE NSCs; format: cell-based, mouse; conditions: independent of cell fusion
Procedure: (§2) (A) is a schematic drawing of Oct4 promoter with 16 CpG sites, which are located between the proximal enhancer and exon 1. Bisulfite sequencing analysis is performed for genomic DNA extracted from CIPOE, Z-Red ESCs, fusion clone B3, CIPOE-shControl and CIPOE-shG9a NSCs. (B, C) show conventional RT-PCR (B) and quantitative real-time PCR(C) are used to compare the mRNA abundance of Oct4 in CIPOE, Z-Red ESCs, fusion clone B3, CIPOE-shControl and CIPOE-shG9a NSCs. Data represent mean+SEM. (n=3, *. P<0.01, Student's t-test).
(§3) Reprogramming requires erasure of the somatic epigenoine including both histone and DNA modification. […] The impact of G9a knockdown on endogenous Oct4 expression was also evaluated. […] The mRNA abundance of Oct4 expression measured in bulk adult NSC cultures with G9a knocking-down reached around 10% of that in ESCs, while little expression was detected in CIPOE or CIPOE cells expressing the control shRNA.
For bisulfite genomic sequencing, 500 ng of genomic DNA from each sample was digested by EcoRI overnight, followed by boiling for 5 min and incubation in 0.3 M NaOH at 50° C. for 15 min. […] Efficiency of bisulfite conversion was monitored by the presence of unconverted C residues in non-CpG regions, which were only seldom seen. […]

Oct4 = test: Conventional RT-PCR and quantitative PCR of endogenous Oct4 expression in adult NSCs; format: cell-based, mouse
Procedure: as §2
as §3, with “modification. Next it was further tested whether DNA demethylation of pluripotency gene Oct4 induced by ESC-mediated reprogramming may partially account for the facilitating effects of histone demethylation during reprogramming.” for “modification.”
as §1

[2] = 100 nM, applied only during the first 48 hours after fusion

CC(/C=C/C(=O)NO)=C\[C@@H](C)C(=O)c1ccc(N(C)C)cc1 [TSA, Trichostatin A]
Effects (on reprogramming) [1, 2]: pro-differentiation
Effects (toxicity to the cells) [1, 2]: toxic

CCCCCCCCCCCCCCCc1cccc(O)c1C(=O)O [Anacardic acid]
Effects (on reprogramming) ([1]; 5 μM, applied only during the first 48 hours after fusion): mild reprogramming deficit;

N[C@@H]1C[C@H]1c1ccccc1 (racemic) [Tranylcypromine]
Effects (on reprogramming) ([1]; 2 μM, applied only during the first 48 hours after fusion): mild reprogramming deficit

B1: shRNA-G9a: short hairpin RNA for mouse G9a, …, cloned into retroviral vector pUEG (nucleic acid, listed as Mus musculus)
chain: TCTATCGCCTTGAGCCGTTGGCCTTCAGATAGGCTGATTTGGTTGGTGTCTTGCTCTTTCTGTGGGAAGGCTGCGGCTCACTTCCTTCTGACTTCTTGATAATTTTGCATTAGACATTTAACTCTTCTTTCTATGATCTTTCCTTCTAGACACTGAGTTTTTTGGTTGTTGCCTAAAACCTTTTCAGAAATCCCTTCCCTCGCCATCACACTGACATGAGTGTGGGTCTTCCTGGTCCCCACAGTTTGCCTAGTTCTGAGGAAGCATCGAATTCTGGGAACGCCTCATCAATGCCTGCAGTTTTTCATCCCGAGAACTATTCTTGCTTACAAGGGTCTGCTACTGAGATGCTCTGCACAGAGGCTGCCTCTCCTCGCCCTTCCTCTGAAGACCTGCCTCTTCAAGGCAGCCCTGATTCTTCTACCAGTCCCAAACAAAAGCTCTCAAGTCCTGAGGCTGACAAGGGCCCTGAGGAGGAGGAGAACAAGGTCCTTGCCAGGAAGCAGAAGATGCGGACTGTGTTCTCTCAGGCCCAGCTGTGTGCACTCAAGGACAGGTTTCAGAAGCAGAAGTACCTCAGCCTCCAGCAGATGCAAGAACTCTCCTCCATTCTGAACCTGAGCTATAAGCAGGTTAAGACCTGGTTTCAAAACCAAAGGATGAAGTGCAAGCGGTGGCAGAAAAACCAGTGGTTGAAGACTAGCAATGGTCTGATTCAGAAGGGCTCAGCACCAGTGGAGTATCCCAGCATCCATTGCAGCTATCCCCAGGGCTATCTGGTGAACGCATCTGGAAGCCTTTCCATGTGGGGCAGCCAGACTTGGACCAACCCAACTTGGAGCAGCCAGACCTGGACCAACCCAACTTGGAACAACCAGACCTGGACCAACCCAACTTGGAGCAGCCAGGCCTGGACCGCTCAGTCCTGGAACGGCCAGCCTTGGAATGCTGCTCCGCTCCATAACTTCGGGGAGGACTTTCTGCAGCCTTACGTACAGTTGCAGCAAAACTTCTCTGCCAGTGATTTGGAGGTGAATTTGGAAGCCACTAGGGAAAGCCATGCGCATTTTAGCACCCCACAAGCCTTGGAATTATTCCTGAACTACTCTGTGACTCCACCAGGTGAAATATGAGACTTACGCAACATCTGGGCTTAAAGTCAGGGCAAAGCCAGGTTCCTTCCTTCTTCCAAATATTTTCATATTTTTTTTAAAGATTTATTTATTCATTATATGTAAGTACACTGTAGCTGTCTTCAGACACTCCAGAAGAGGGCGTCAGATCTTGTTACGTATGGTTGTGAGCCACCATGTGGTTGCTGGGATTTGAACTCCTGACCTTCGGAAGAGCAGTCGG
modifications: cloned into retroviral vector pUEG
notes: short hairpin RNA for mouse G9a, …, cloned into retroviral vector pUEG
expression of endogenous G9a (G9a): knocked down
DNA methylation in Oct4 promoter regions (Oct4 promoter): considerably decreased
expression of endogenous Oct4 (Oct4; adult NSCs, conventional and quantitative PCR): partially re-activated
mRNA abundance of Oct4 expression (Oct4; bulk adult NSC cultures, relative to that in ESCs): around 10%
increase in the reprogramming frequency ([1]; day 2, expressed in CIPOE NSCs): 110%
efficacy of ESC-induced Oct4-GFP re-activation ([1]; day 2 and day 4, expressed in CIPOE NSCs): significantly enhanced
increase in the reprogramming frequency ([1]; day 4, expressed in CIPOE NSCs): 26%
